According to patent publication EP4703372A1:
Like-named read-outs stand apart in the source and are kept apart here.

Tests used:
[1] = biological target: Human CTLA4 antibody, which included human κ light chain subgroup 3 (Vκ3) (manufactured by R&D Systems, Inc.); assay: ELISA, antibody immobilised (10 ug/mL), binder at 50 ug/mL, anti-6-His detection, blank subtracted
[2] = biological target: Herceptin, which included human κ light chain subgroup 1 (Vκ1) (manufactured by Chugai Pharmaceutical Co., Ltd.); assay: as above
[3] = biological target: Human CTLA4 antibody, which included human κ light chain subgroup 3 (Vκ3) (manufactured by R&D Systems, Inc.); assay: as above; remark: listed apart in the source
[4] = biological target: Human PDGFR alpha antibody, which included human κ light chain subgroup 3 (Vκ3) (manufactured by R&D Systems, Inc.); assay: as above
[5] = biological target: Herceptin, which included human κ light chain subgroup 1 (Vκ1) (manufactured by Chugai Pharmaceutical Co., Ltd.); assay: as above; remark: listed apart in the source
[6] = biological target: Human PCSK9 antibody, which included human κ light chain subgroup 4 (Vκ4) (manufactured by R&D Systems, Inc.); assay: as above
[7] = biological target: Humira, which included human κ light chain subgroup 1 (Vκ1) (manufactured by Eisai Co., Ltd.); assay: ratio of ELISA A450 on Humira (Vκ1) to A450 on Human PCSK9 antibody (Vκ4)
[8] = biological target: Humira, which included human κ light chain subgroup 1 (Vκ1) (manufactured by Eisai Co., Ltd.); assay: ratio of ELISA A450 on Humira (Vκ1) to A450 on Human PDGFR alpha antibody (Vκ3)
[9] = biological target: Humira, which included human κ light chain subgroup 1 (Vκ1) (manufactured by Eisai Co., Ltd.); assay: ratio of ELISA A450 on Humira (Vκ1) to A450 on Human PCSK9 antibody (Vκ4) (repeats Table 17)
[10] = biological target: Humira, which included human κ light chain subgroup 1 (Vκ1) (manufactured by Eisai Co., Ltd.); assay: ratio of ELISA A450 on Humira (Vκ1) to A450 on Human PDGFR alpha antibody (Vκ3) (repeats Table 17)
[11] = biological target: Humira, which included human κ light chain subgroup 1 (Vκ1) (manufactured by Eisai Co., Ltd.); assay: ELISA, antibody immobilised, binder at 50 ug/mL, anti-6-His detection (repeats Table 17)
[12] = biological target: Human PDGFR alpha antibody, which included human κ light chain subgroup 3 (Vκ3) (manufactured by R&D Systems, Inc.); assay: as above
[13] = biological target: Human PCSK9 antibody, which included human κ light chain subgroup 4 (Vκ4) (manufactured by R&D Systems, Inc.); assay: as above
[14] = biological target: Humira, which included human κ light chain subgroup 1 (Vκ1) (manufactured by Eisai Co., Ltd.); assay: ELISA, antibody immobilised (10 ug/mL), binder at 50 ug/mL, anti-6-His detection, blank subtracted

absorbance at 450 nm (absorbance at 450 nm) [1] | absorbance at 450 nm (absorbance at 450 nm) [2] | absorbance at 450 nm (absorbance at 450 nm) [3] | absorbance at 450 nm (absorbance at 450 nm) [4] | absorbance at 450 nm (absorbance at 450 nm) [5] | absorbance at 450 nm (absorbance at 450 nm) [6] | Absorbance ratio (Vκ1/Vκ4) [7] | Absorbance ratio (Vκ1/Vκ3) [8] | Absorbance ratio (Vκ1/Vκ4) [9] | Absorbance ratio (Vκ1/Vκ3) [10] | absorbance at 450 nm (absorbance at 450 nm) [11] | absorbance at 450 nm (absorbance at 450 nm) [12] | absorbance at 450 nm (absorbance at 450 nm) [13] | absorbance at 450 nm (absorbance at 450 nm) [14] | Substance
0.07 | 0.86 | 0.32 | 0.21 | 0.92 | 0.77 |  |  |  |  |  |  |  |  | FpL_C3KR (all lysine residues of FpL_C3 substituted with arginine) (designed binder)
0.98 |  |  |  |  |  |  |  |  |  |  |  |  |  | FpL_C3KR_K38E (K(R)38E introduced into FpL_C3KR) (designed binder)
 |  |  | 0.71 |  | 0.91 | 0.9 | 1.2 | 0.9 | 1.2 | 0.82 | 0.71 | 0.91 | 0.82 | C3 immunoglobulin-binding domain of Protein L derived from Finegoldia magna (FpL_C3), wild-type
